US20250237662A1
Substitutions are numbered along the chain they refer to.

What was measured:
[1] = biological target: humanized development candidate monoclonal antibody IgG4 (hIgG4); assay: Gyrolab, mAb as capture, hIgG4 1000 ng/ml
[2] = biological target: humanized development candidate monoclonal antibody IgG4 (hIgG4); assay: Gyrolab, mAb as capture, hIgG4 5000 ng/ml
[3] = biological target: humanized development candidate monoclonal antibody IgG4 (hIgG4); assay: Gyrolab, mAb as capture, hIgG4 1.6 ng/ml, against the blank
[4] = biological target: humanized development candidate monoclonal antibody IgG4 (hIgG4); assay: Gyrolab immunoassay quality control, biotinylated 16F5 as capture, hIgG4 in matrix with 4% cynomolgus monkey serum, Alexa Fluor 647 goat anti-human IgG detection
[5] = biological target: humanized development candidate monoclonal antibody IgG4 (hIgG4); assay: Gyrolab, mAb as capture, hIgG4 40 ng/ml
[6] = biological target: humanized development candidate monoclonal antibody IgG4 (hIgG4); assay: Gyrolab, mAb as capture, hIgG4 8 ng/ml
[7] = biological target: cynomolgus monkey IgG (cynoIgG); assay: direct ELISA, cynoIgG coated (hIgG4/CynoIgG screen), B-cell culture medium
[8] = biological target: cynomolgus monkey IgG (cynoIgG); assay: direct ELISA, cynoIgG coated (hIgG1/CynoIgG screen), B-cell culture medium
[9] = biological target: humanized development candidate monoclonal antibody IgG4 (hIgG4); assay: ELISA, medium of transfected HEK293F; signal on hIgG4 over signal on cynoIgG
[10] = biological target: humanized development candidate monoclonal antibody IgG4 (hIgG4); assay: Gyrolab, mAb as capture, hIgG4 5000 ng/ml, against the blank
[11] = biological target: humanized development candidate monoclonal antibody IgG4 (hIgG4); assay: Gyrolab, mAb as capture, hIgG4 200 ng/ml
[12] = biological target: humanized development candidate monoclonal antibody IgG4 (hIgG4); assay: Gyrolab, mAb as capture, hIgG4 200 ng/ml, against the blank
[13] = biological target: humanized development candidate monoclonal antibody IgG4 (hIgG4); assay: Gyrolab, mAb as capture, hIgG4 0.32 ng/ml
[14] = biological target: humanized development candidate monoclonal antibody IgG4 (hIgG4); assay: SPR (Biacore T200), mAb captured by anti-rabbit mAb on CM5, antigen 80-0 nM, 1:1 fit
[15] = biological target: humanized therapeutic monoclonal antibody IgG1 (hIgG1); assay: as above
[16] = biological target: internal research reagent human Fab (hFab); assay: as above
[17] = biological target: humanized therapeutic monoclonal antibody IgG1 (hIgG1); assay: direct ELISA, hIgG1 coated, B-cell culture medium
[18] = biological target: humanized development candidate monoclonal antibody IgG4 (hIgG4); assay: Gyrolab, mAb as capture, hIgG4 8 ng/ml, against the blank
[19] = biological target: humanized development candidate monoclonal antibody IgG4 (hIgG4); assay: direct ELISA, hIgG4 coated, B-cell culture medium
[20] = biological target: humanized development candidate monoclonal antibody IgG4 (hIgG4); assay: Gyrolab, mAb as capture, hIgG4 1000 ng/ml, against the blank
[21] = biological target: humanized development candidate monoclonal antibody IgG4 (hIgG4); assay: Gyrolab, mAb as capture, hIgG4 0.32 ng/ml, against the blank
[22] = biological target: humanized therapeutic monoclonal antibody IgG1 (hIgG1); assay: ELISA, medium of transfected HEK293F; signal on hIgG1 over signal on cynoIgG
[23] = biological target: humanized development candidate monoclonal antibody IgG4 (hIgG4); assay: Gyrolab, mAb as capture, hIgG4 1.6 ng/ml
[24] = biological target: humanized development candidate monoclonal antibody IgG4 (hIgG4); assay: Gyrolab, mAb as capture, hIgG4 40 ng/ml, against the blank
[25] = biological target: drug: a monoclonal antibody of human IgG4 isotype (PandA assay); assay: PandA assay, mAb 0.75 ug/ml in monkey plasma
[26] = biological target: drug: a monoclonal antibody of human IgG4 isotype (PandA assay); assay: PandA assay, monkey matrix, mAb 1 ug/ml
[27] = biological target: drug: a monoclonal antibody of human IgG4 isotype (PandA assay); assay: PandA assay, monkey matrix, mAb 5 ug/ml
[28] = biological target: drug: a monoclonal antibody of human IgG4 isotype (PandA assay); assay: PandA assay, monkey matrix, mAb 0.5 ug/ml
[29] = biological target: drug: a monoclonal antibody of human IgG4 isotype (PandA assay); assay: PandA assay, mAb 0.5 ug/ml in monkey plasma
[30] = biological target: drug: a monoclonal antibody of human IgG4 isotype (PandA assay); assay: PandA assay, mAb 1 ug/ml in monkey plasma
[31] = biological target: drug: a monoclonal antibody of human IgG4 isotype (PandA assay); assay: PandA assay, signal to noise against the negative control
[32] = biological target: drug: a monoclonal antibody of human IgG4 isotype (PandA assay); assay: PandA assay, monkey matrix, mAb 0.75 ug/ml
[33] = biological target: drug: a monoclonal antibody of human IgG4 isotype (PandA assay); assay: PandA assay (PEG precipitation, acid dissociation, MSD plate, sulfo-TAG-drug), mAb 5 ug/ml in monkey plasma

B1: rabbit anti-human IgG monoclonal antibody clone 16F5 (antibody, V domains shown)
VH: QQQLEESGGGLVKPGGTLTLTCKASGIDFSNYYYMCWVRQAPGKGLELIACIYTGSSGSTWYATWAKGRFTISKTSSTTVTLQMTSLTAADTATYFCARDRDVGSLYDSLDLWGQGTLVTVSP
VL: AYDMTQTPASVEAAVGGTVTINCQASQSINNWLSWYQQKPGQRPKLLIYQASTLASGVSSRFKGSGSGTHFTLTISDLECADAATYYCQQGWSIDDIDNAFGGGTEVVVKG
[1]
  Av. Resp.: 369
[2]
  Av. Resp.: 385
[3]
  S/B: 1.8
[4]
  Average Response (HQC, expected conc 750 ng/mL): 414
  Average Response (LQC, expected conc 40.0 ng/mL): 70.3
  Average Response (MQC, expected conc 0.600 ng/mL): 5.85
  Response (HQC, expected conc 750 ng/mL, CD struct C1): 400
  Response (HQC, expected conc 750 ng/mL, CD struct C2): 427
  Response (LQC, expected conc 40.0 ng/mL, CD struct C3): 68.6
  Response (LQC, expected conc 40.0 ng/mL, CD struct C4): 72
  Response (MQC, expected conc 0.600 ng/mL, CD struct C5): 5.88
  Response (MQC, expected conc 0.600 ng/mL, CD struct C6): 5.83
  S/B (HQC, expected conc 750 ng/mL, CD struct C1): 87.7
  S/B (HQC, expected conc 750 ng/mL, CD struct C2): 93.6
  S/B (LQC, expected conc 40.0 ng/mL, CD struct C3): 15
  S/B (LQC, expected conc 40.0 ng/mL, CD struct C4): 15.8
  S/B (MQC, expected conc 0.600 ng/mL, CD struct C5): 1.29
  S/B (MQC, expected conc 0.600 ng/mL, CD struct C6): 1.28
[5]
  Av. Resp.: 64.2
[6]
  Av. Resp.: 18.5
[7]
  OD450: 0.154 OD450
[8]
  OD450: 0.184 OD450
[9]
  ELISA signal ratio hIgG4/CynoIgG: 6.33
[10]
  S/B: 98.6
[11]
  Av. Resp.: 197
[12]
  S/B: 50.5
[13]
  Av. Resp.: 4.4
[14]
  Kd: 0.514 nM
  koff: 8.09e-05 s⁻¹
  kon: 157000 M⁻¹ s⁻¹
[15]
  Kd: 0.127 nM
  koff: 2.21e-05 s⁻¹
  kon: 173000 M⁻¹ s⁻¹
[16]
  Kd: 1.93 nM
  koff: 0.00584 s⁻¹
  kon: 3.02e+06 M⁻¹ s⁻¹
[17]
  OD450: 1.39 OD450
[18]
  S/B: 4.7
[19]
  OD450: 1.37 OD450
[20]
  S/B: 94.4
[21]
  S/B: 1.1
[22]
  ELISA signal ratio hIgG1/CynoIgG: 5.9
[23]
  Av. Resp.: 7
[24]
  S/B: 16.4

B2: rabbit anti-human IgG monoclonal antibody clone 11F9 (antibody, V domains shown)
VH: QQQLEESGGGLVQPEGSLTLTCIASGFSFSSSHWICWVRQAPGKGLEWIACMSTSSGSTYDANWAKGRFTISKTSSTTVTLQMTSLTAADTATYFCARDVGGSTTYFDLWGPGTLVTVSS
VL: AYDMTQTPASVSEPVGGTVTIKCQASQSISNELSWYQQKPGQPPKLLIYRASTLASGVPSRFKGSGSGTQFTLTINGVECADAATYYCQQGYSISNVDNTFGGGTEVVVKG
[1]
  Av. Resp.: 289
[2]
  Av. Resp.: 330
[5]
  Av. Resp.: 45.1
[6]
  Av. Resp.: 12.8
[7]
  OD450: 0.092 OD450
[8]
  OD450: 0.089 OD450
[11]
  Av. Resp.: 148
[13]
  Av. Resp.: 3.1
[14]
  Kd: 0.279 nM
[15]
  Kd: 0.619 nM
[16]
  Kd: 1.12 nM
[17]
  OD450: 1.11 OD450
[19]
  OD450: 0.91 OD450
[23]
  Av. Resp.: 5

B3: rabbit anti-human IgG monoclonal antibody clone 11G5 (antibody, V domains shown)
VH: QSLEESGGDLVKPGASLTLTCTASGFSFSSSYYMCWVRQAPGKRLEWIACIYGGGLSNTYYAGWAKGRFTISKTSSTTVTLQMTSLTAADTATYFCARDATSGDYLNLWGPGTLVTVSS
VL: AVVMTQTASPVSGAVGGTVTINCQASQSISASALSWYQQKPGQPPKLLIYAASTLESGVPSRFKGSGSGTQFTLTISGVQCDDAATYYCAYDGYRLSSADNIFGGGTEVVVKG
[1]
  Av. Resp.: 394
[2]
  Av. Resp.: 468
[3]
  S/B: 1.3
[5]
  Av. Resp.: 60.9
[25]
  ECL Signal: 257
[26]
  S/N (monkey): 2.4
[27]
  S/N (monkey): 9.76
[6]
  Av. Resp.: 20.3
[7]
  OD450: 0.159 OD450
[8]
  OD450: 0.161 OD450
[9]
  ELISA signal ratio hIgG4/CynoIgG: 5.19
[10]
  S/B: 63.3
[28]
  S/N (monkey): 1.58
[29]
  ECL Signal: 171
[11]
  Av. Resp.: 184
[12]
  S/B: 24.8
[13]
  Av. Resp.: 7.5
[30]
  ECL Signal: 320
[14]
  Kd: 0.0429 nM
  koff: 5.8e-06 s⁻¹
  kon: 135000 M⁻¹ s⁻¹
[15]
  Kd: 0.187 nM
  koff: 2.52e-05 s⁻¹
  kon: 135000 M⁻¹ s⁻¹
[16]
  Kd: 0.591 nM
  koff: 0.000531 s⁻¹
  kon: 899000 M⁻¹ s⁻¹
[17]
  OD450: 1.25 OD450
[31]
  S/N: 1.8
[32]
  S/N (monkey): 1.92
[18]
  S/B: 2.7
[19]
  OD450: 1.32 OD450
[20]
  S/B: 53.1
[33]
  ECL Signal: 1550
[21]
  S/B: 1
[22]
  ELISA signal ratio hIgG1/CynoIgG: 4.94
[23]
  Av. Resp.: 9.8
[24]
  S/B: 8.2

B4: rabbit anti-human IgG monoclonal antibody clone 19B1 (antibody, V domains shown)
VH: QEQLVESGGGLVQPEGSLTLTCTASGFSFSDSYYMCWVRQAPGKGLEWIACIYGGTITNTYYASWAKGRFTISKTSSTTVTLQMTSLTAADTATYFCARDLGAAGDAYNLWGPGTLVTVSS
VL: ASDMTQTPASVSEPVGGTVTIKCQASENIYSSLAWYQQKPGQPPKLLIYDASNLASGVPSRFSGSGSGTEFTLTISDLECADAATYYCQCTYRSSSSSYAFGGGTEVVVKG
[1]
  Av. Resp.: 203
[2]
  Av. Resp.: 246
[5]
  Av. Resp.: 22.8
[6]
  Av. Resp.: 6.2
[7]
  OD450: 0.102 OD450
[8]
  OD450: 0.055 OD450
[11]
  Av. Resp.: 82.9
[13]
  Av. Resp.: 1.8
[14]
  Kd: 0.067 nM
[15]
  Kd: 0.239 nM
[16]
  Kd: 0.54 nM
[17]
  OD450: 1.15 OD450
[19]
  OD450: 0.954 OD450
[23]
  Av. Resp.: 2.7

B5: rabbit anti-human IgG monoclonal antibody clone 9E6 (antibody, V domains shown)
VH: QSLEESGGDLVKPGASLTLTCKASGFDFSSSYYMCWVRQAPGRLEWIACIYGGGLSNTYYAGWAKGRFTISKTSSTTVTLQMTSLTVADTATYFCARDAGTSGDYLNLWGPGTLVTVSS
VL: B3 VL with A31S, A33Y, A51G, E56A, G93A, A99P
[1]
  Av. Resp.: 256
[2]
  Av. Resp.: 327
[3]
  S/B: 1.4
[5]
  Av. Resp.: 28.4
[6]
  Av. Resp.: 8.6
[7]
  OD450: 0.146 OD450
[8]
  OD450: 0.14 OD450
[9]
  ELISA signal ratio hIgG4/CynoIgG: 9.53
[10]
  S/B: 113
[11]
  Av. Resp.: 103
[12]
  S/B: 35.5
[13]
  Av. Resp.: 3
[14]
  Kd: 0.196 nM
  koff: 2.68e-05 s⁻¹
  kon: 137000 M⁻¹ s⁻¹
[15]
  Kd: 0.426 nM
  koff: 6.1e-05 s⁻¹
  kon: 143000 M⁻¹ s⁻¹
[16]
  Kd: 0.518 nM
  koff: 0.00603 s⁻¹
  kon: 1.16e+07 M⁻¹ s⁻¹
[17]
  OD450: 1.28 OD450
[18]
  S/B: 3
[19]
  OD450: 1.28 OD450
[20]
  S/B: 88.2
[21]
  S/B: 1.1
[22]
  ELISA signal ratio hIgG1/CynoIgG: 10.2
[23]
  Av. Resp.: 4.1
[24]
  S/B: 9.8
